In the Human Domainome abundance scans (Beltran et al. 2025) one finds abundance fitness data, which are given here for 38 variants.

± gives the uncertainty stated by the source.

The chains are these.
B1: Far upstream element-binding protein 1, residues 98 to 169; numbered along this chain, Q96AE4 (parent)
chain: RSVMTEEYKVPDGMVGFIIGRGGEQISRIQQESGCKIQIAPDSGGLPERSCMLTGTPESVQSAKRLLDQIVE

This data set covers variants of B1. The data set can be described thus: abundance fitness (aPCA) (normalised: wild type 0, dead -1); higher = more abundant; growth selection in yeast, the domain comes from the species named. The note with it: Homo sapiens.
For the variant RSVMTEEYKVPDGMVGFIIGRGGEQISRIQQESGCKIQIAPDSGGLPYRSCMLTGTPESVQSAKRLLDQIVE [E48Y], the abundance fitness worked out at 0.02 ± 0.046.
Turning to RSVMTEEYKVPDGMVGFIIGRGGEQISRIQQESGCKIQIAPDSGGLPERDCMLTGTPESVQSAKRLLDQIVE [S50D], the abundance fitness is -0.023 ± 0.038.
As to RSVMTEEYKVPDGMVGFIIGRGGEQISRIQQESGCKIQIAPDSGGLPERCCMLTGTPESVQSAKRLLDQIVE [S50C], the abundance fitness was -0.015 ± 0.033.
Take RSVMTEEYKVPDGMVGFIIGRGGEQISRIQQESGCKIQIAPDSGGLPERECMLTGTPESVQSAKRLLDQIVE [S50E]: the abundance fitness was -0.06 ± 0.033.
On to RSVMTEEYKVPDGMVGFIIGRGGEQISRIQQESGCKIQIAPDSGGLPERFCMLTGTPESVQSAKRLLDQIVE [S50F], for which the abundance fitness is -0.177 ± 0.051.
The result for RSVMTEEYKVPDGMVGFIIGRGGEQISRIQQESGCKIQIAPDSGGLPERICMLTGTPESVQSAKRLLDQIVE [S50I] reads 0.07 ± 0.052.
Turning to RSVMTEEYKVPDGMVGFIIGRGGEQISRIQQESGCKIQIAPDSGGLPERTCMLTGTPESVQSAKRLLDQIVE [S50T], the abundance fitness is -0.015 ± 0.032.
Take RSVMTEEYKVPDGMVGFIIGRGGEQISRIQQESGCKIQIAPDSGGLPERPCMLTGTPESVQSAKRLLDQIVE [S50P]: the abundance fitness was -0.043 ± 0.035.
As for RSVMTEEYKVPDGMVGFIIGRGGEQISRIQQESGCKIQIAPDSGGLPERVCMLTGTPESVQSAKRLLDQIVE [S50V], the abundance fitness is -0.017 ± 0.027.
On to RSVMTEEYKVPDGMVGFIIGRGGEQISRIQQESGCKIQIAPDSGGLPERQCMLTGTPESVQSAKRLLDQIVE [S50Q], for which the abundance fitness was -0.025 ± 0.033.
For RSVMTEEYKVPDGMVGFIIGRGGEQISRIQQESGCKIQIAPDSGGLPERHCMLTGTPESVQSAKRLLDQIVE [S50H], the abundance fitness was -0.105 ± 0.044.
Regarding RSVMTEEYKVPDGMVGFIIGRGGEQISRIQQESGCKIQIAPDSGGLPERKCMLTGTPESVQSAKRLLDQIVE [S50K], the abundance fitness was -0.019 ± 0.034.
Regarding RSVMTEEYKVPDGMVGFIIGRGGEQISRIQQESGCKIQIAPDSGGLPERLCMLTGTPESVQSAKRLLDQIVE [S50L], the abundance fitness was -0.002 ± 0.028.
Take RSVMTEEYKVPDGMVGFIIGRGGEQISRIQQESGCKIQIAPDSGGLPERGCMLTGTPESVQSAKRLLDQIVE [S50G]: the abundance fitness is -0.054 ± 0.025.
RSVMTEEYKVPDGMVGFIIGRGGEQISRIQQESGCKIQIAPDSGGLPERYCMLTGTPESVQSAKRLLDQIVE [S50Y]: the abundance fitness is -0.117 ± 0.038.
Consider RSVMTEEYKVPDGMVGFIIGRGGEQISRIQQESGCKIQIAPDSGGLPERACMLTGTPESVQSAKRLLDQIVE [S50A], for which the abundance fitness is -0.048 ± 0.029.
Regarding RSVMTEEYKVPDGMVGFIIGRGGEQISRIQQESGCKIQIAPDSGGLPERNCMLTGTPESVQSAKRLLDQIVE [S50N], the abundance fitness came out at 0.038 ± 0.046.
For the variant RSVMTEEYKVPDGMVGFIIGRGGEQISRIQQESGCKIQIAPDSGGLPERRCMLTGTPESVQSAKRLLDQIVE [S50R], the abundance fitness is -0.011 ± 0.023.
On to RSVMTEEYKVPDGMVGFIIGRGGEQISRIQQESGCKIQIAPDSGGLPERMCMLTGTPESVQSAKRLLDQIVE [S50M], for which the abundance fitness was -0.018 ± 0.034.
On to RSVMTEEYKVPDGMVGFIIGRGGEQISRIQQESGCKIQIAPDSGGLPERWCMLTGTPESVQSAKRLLDQIVE [S50W], for which the abundance fitness was -0.174 ± 0.03.
In the case of RSVMTEEYKVPDGMVGFIIGRGGEQISRIQQESGCKIQIAPDSGGLPEFSCMLTGTPESVQSAKRLLDQIVE [R49F], the abundance fitness was -0.248 ± 0.049.
For the variant RSVMTEEYKVPDGMVGFIIGRGGEQISRIQQESGCKIQIAPDSGGLPEASCMLTGTPESVQSAKRLLDQIVE [R49A], the abundance fitness is -0.088 ± 0.031.
With RSVMTEEYKVPDGMVGFIIGRGGEQISRIQQESGCKIQIAPDSGGLPEVSCMLTGTPESVQSAKRLLDQIVE [R49V], the abundance fitness is -0.116 ± 0.03.
With RSVMTEEYKVPDGMVGFIIGRGGEQISRIQQESGCKIQIAPDSGGLPELSCMLTGTPESVQSAKRLLDQIVE [R49L], the abundance fitness is -0.18 ± 0.03.
For the variant RSVMTEEYKVPDGMVGFIIGRGGEQISRIQQESGCKIQIAPDSGGLPEHSCMLTGTPESVQSAKRLLDQIVE [R49H], the abundance fitness was -0.106 ± 0.054.
On to RSVMTEEYKVPDGMVGFIIGRGGEQISRIQQESGCKIQIAPDSGGLPEGSCMLTGTPESVQSAKRLLDQIVE [R49G], for which the abundance fitness was -0.088 ± 0.026.
With RSVMTEEYKVPDGMVGFIIGRGGEQISRIQQESGCKIQIAPDSGGLPEESCMLTGTPESVQSAKRLLDQIVE [R49E], the abundance fitness was -0.188 ± 0.033.
For the variant RSVMTEEYKVPDGMVGFIIGRGGEQISRIQQESGCKIQIAPDSGGLPEQSCMLTGTPESVQSAKRLLDQIVE [R49Q], the abundance fitness was -0.083 ± 0.038.
The figure for RSVMTEEYKVPDGMVGFIIGRGGEQISRIQQESGCKIQIAPDSGGLPEISCMLTGTPESVQSAKRLLDQIVE [R49I] is -0.133 ± 0.045.
Take RSVMTEEYKVPDGMVGFIIGRGGEQISRIQQESGCKIQIAPDSGGLPEKSCMLTGTPESVQSAKRLLDQIVE [R49K]: the abundance fitness was -0.079 ± 0.037.
Consider RSVMTEEYKVPDGMVGFIIGRGGEQISRIQQESGCKIQIAPDSGGLPEWSCMLTGTPESVQSAKRLLDQIVE [R49W], for which the abundance fitness is -0.318 ± 0.032.
As for RSVMTEEYKVPDGMVGFIIGRGGEQISRIQQESGCKIQIAPDSGGLPECSCMLTGTPESVQSAKRLLDQIVE [R49C], the abundance fitness was -0.183 ± 0.041.
For RSVMTEEYKVPDGMVGFIIGRGGEQISRIQQESGCKIQIAPDSGGLPEYSCMLTGTPESVQSAKRLLDQIVE [R49Y], the abundance fitness was -0.072 ± 0.046.
Take RSVMTEEYKVPDGMVGFIIGRGGEQISRIQQESGCKIQIAPDSGGLPEPSCMLTGTPESVQSAKRLLDQIVE [R49P]: the abundance fitness is -0.144 ± 0.04.
With RSVMTEEYKVPDGMVGFIIGRGGEQISRIQQESGCKIQIAPDSGGLPETSCMLTGTPESVQSAKRLLDQIVE [R49T], the abundance fitness is -0.068 ± 0.034.
Take RSVMTEEYKVPDGMVGFIIGRGGEQISRIQQESGCKIQIAPDSGGLPENSCMLTGTPESVQSAKRLLDQIVE [R49N]: the abundance fitness was -0.085 ± 0.045.
In the case of RSVMTEEYKVPDGMVGFIIGRGGEQISRIQQESGCKIQIAPDSGGLPEDSCMLTGTPESVQSAKRLLDQIVE [R49D], the abundance fitness is -0.172 ± 0.045.
With RSVMTEEYKVPDGMVGFIIGRGGEQISRIQQESGCKIQIAPDSGGLPESSCMLTGTPESVQSAKRLLDQIVE [R49S], the abundance fitness is -0.086 ± 0.029.
